Reference: the supplement of paper PMC10567573

B1: RSPH3 (parent)
chain: FIPAKTGKDVATQILEGELFDFDL

Variants of: B1
Assay: protein stability index of a GFP-peptide fusion (GPS, HEK-293T) (PSI 1-6); higher = more stable
Details: c terminus: a fixed tail appended
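Note: lentivirally expressed fusions sorted by FACS into six bins by GFP to DsRed ratio, PSI derived from sequencing read proportions per bin multiplied by bin number.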

Compared with FIPAKCGKDVATQILEGELFDFDL [T6C], FIPAKHGKDVATQILEGELFDFDL [T6H] is higher in protein stability index: 1.29 for the first, 1.82 for the second.

Going from FIPAKLGKDVATQILEGELFDFDL [T6L] to FIPAKNGKDVATQILEGELFDFDL [T6N], the protein stability index rises from 1.87 to 1.91.

Going from FIPAKKGKDVATQILEGELFDFDL [T6K] to FIPAKDGKDVATQILEGELFDFDL [T6D], the protein stability index rises from 2.22 to 2.46.

First: FIPAKMGKDVATQILEGELFDFDL [T6M]
Second: FIPAKGGKDVATQILEGELFDFDL [T6G]
The protein stability index of the first is lower: 1.59 for the first, 2.12 for the second.

First: FIPAKFGKDVATQILEGELFDFDL [T6F]
Second: FIPAKEGKDVATQILEGELFDFDL [T6E]
The protein stability index of the first is lower: 2.08 for the first, 2.43 for the second.

Compared with FIPAKYGKDVATQILEGELFDFDL [T6Y], FIPAKAGKDVATQILEGELFDFDL [T6A] is higher in protein stability index: 1.64 for the first, 2 for the second.

Going from FIPAKPGKDVATQILEGELFDFDL [T6P] to FIPAKWGKDVATQILEGELFDFDL [T6W], the protein stability index rises from 1.42 to 1.9.

Going from FIPAKQGKDVATQILEGELFDFDL [T6Q] to FIPAKVGKDVATQILEGELFDFDL [T6V], the protein stability index falls from 1.64 to 1.6.

FIPAKRGKDVATQILEGELFDFDL [T6R] and FIPAKSGKDVATQILEGELFDFDL [T6S] are the same in protein stability index: 1.71 for the first, 1.71 for the second.

Compared with FIPAKIGKDVATQILEGELFDFDL [T6I], FIPAKTGKDVATRILEGELFDFDL [Q13R] is lower in protein stability index: 2.53 for the first, 1.58 for the second.

Going from FIPAKTGKDVATEILEGELFDFDL [Q13E] to FIPAKTGKDVATWILEGELFDFDL [Q13W], the protein stability index rises from 1.65 to 1.95.

Going from FIPAKTGKDVATAILEGELFDFDL [Q13A] to FIPAKTGKDVATYILEGELFDFDL [Q13Y], the protein stability index rises from 1.43 to 2.09.

Compared with FIPAKTGKDVATGILEGELFDFDL [Q13G], FIPAKTGKDVATKILEGELFDFDL [Q13K] is lower in protein stability index: 2.65 for the first, 1.78 for the second.

First: FIPAKTGKDVATPILEGELFDFDL [Q13P]
Second: FIPAKTGKDVATHILEGELFDFDL [Q13H]
The protein stability index of the first is lower: 1.95 for the first, 2.62 for the second.

Compared with FIPAKTGKDVATVILEGELFDFDL [Q13V], FIPAKTGKDVATMILEGELFDFDL [Q13M] is lower in protein stability index: 2.55 for the first, 1.67 for the second.

Compared with FIPAKTGKDVATDILEGELFDFDL [Q13D], FIPAKTGKDVATCILEGELFDFDL [Q13C] is higher in protein stability index: 2.08 for the first, 2.9 for the second.

First: FIPAKTGKDVATFILEGELFDFDL [Q13F]
Second: FIPAKTGKDVATLILEGELFDFDL [Q13L]
The protein stability index of the first is lower: 2.07 for the first, 2.38 for the second.

Going from FIPAKTGKDVATTILEGELFDFDL [Q13T] to FIPAKTGKDVATSILEGELFDFDL [Q13S], the protein stability index rises from 1.99 to 2.32.

Going from FIPAKTGKDVATNILEGELFDFDL [Q13N] to FIPAKTGKDVATIILEGELFDFDL [Q13I], the protein stability index rises from 1.97 to 2.43.

Compared with FIPWKTGKDVATQILEGELFDFDL [A4W], FIPQKTGKDVATQILEGELFDFDL [A4Q] is higher in protein stability index: 1.6 for the first, 2.05 for the second.

Compared with FIPTKTGKDVATQILEGELFDFDL [A4T], FIPSKTGKDVATQILEGELFDFDL [A4S] is lower in protein stability index: 1.96 for the first, 1.64 for the second.

Going from FIPYKTGKDVATQILEGELFDFDL [A4Y] to FIPVKTGKDVATQILEGELFDFDL [A4V], the protein stability index rises from 1.54 to 2.28.

First: FIPAQTGKDVATQILEGELFDFDL [K5Q]
Second: FIPAMTGKDVATQILEGELFDFDL [K5M]
The protein stability index of the first is higher: 2.21 for the first, 1.87 for the second.

Compared with FIPAHTGKDVATQILEGELFDFDL [K5H], FIPADTGKDVATQILEGELFDFDL [K5D] is higher in protein stability index: 1.92 for the first, 2.66 for the second.

Compared with FIPAGTGKDVATQILEGELFDFDL [K5G], FIPAATGKDVATQILEGELFDFDL [K5A] is lower in protein stability index: 1.97 for the first, 1.77 for the second.

Going from FIPAVTGKDVATQILEGELFDFDL [K5V] to FIPARTGKDVATQILEGELFDFDL [K5R], the protein stability index rises from 1.72 to 1.75.

Compared with FIPACTGKDVATQILEGELFDFDL [K5C], FIPASTGKDVATQILEGELFDFDL [K5S] is higher in protein stability index: 1.87 for the first, 2.01 for the second.

First: FIPAETGKDVATQILEGELFDFDL [K5E]
Second: FIPAPTGKDVATQILEGELFDFDL [K5P]
The protein stability index of the first is higher: 2.95 for the first, 2.22 for the second.

First: FIPATTGKDVATQILEGELFDFDL [K5T]
Second: FIPAWTGKDVATQILEGELFDFDL [K5W]
The protein stability index of the first is higher: 2.15 for the first, 1.57 for the second.

Compared with FIPALTGKDVATQILEGELFDFDL [K5L], FIPANTGKDVATQILEGELFDFDL [K5N] is higher in protein stability index: 1.85 for the first, 2.71 for the second.

Compared with FIPAYTGKDVATQILEGELFDFDL [K5Y], FIPAFTGKDVATQILEGELFDFDL [K5F] is higher in protein stability index: 1.88 for the first, 2.46 for the second.

Going from FIPAITGKDVATQILEGELFDFDL [K5I] to FIPAKTGKDVAYQILEGELFDFDL [T12Y], the protein stability index rises from 1.63 to 1.92.

Compared with FIPAKTGKDVAPQILEGELFDFDL [T12P], FIPAKTGKDVALQILEGELFDFDL [T12L] is higher in protein stability index: 1.8 for the first, 2.18 for the second.

Compared with FIPAKTGKDVAKQILEGELFDFDL [T12K], FIPAKTGKDVAWQILEGELFDFDL [T12W] is higher in protein stability index: 1.49 for the first, 3.27 for the second.

First: FIPAKTGKDVASQILEGELFDFDL [T12S]
Second: FIPAKTGKDVAEQILEGELFDFDL [T12E]
The protein stability index of the first is lower: 1.82 for the first, 2.04 for the second.

Compared with FIPAKTGKDVAHQILEGELFDFDL [T12H], FIPAKTGKDVAFQILEGELFDFDL [T12F] is higher in protein stability index: 1.43 for the first, 2.73 for the second.

First: FIPAKTGKDVAQQILEGELFDFDL [T12Q]
Second: FIPAKTGKDVAGQILEGELFDFDL [T12G]
The protein stability index of the first is higher: 1.92 for the first, 1.7 for the second.

Compared with FIPAKTGKDVACQILEGELFDFDL [T12C], FIPAKTGKDVARQILEGELFDFDL [T12R] is higher in protein stability index: 2.02 for the first, 2.55 for the second.

First: FIPAKTGKDVAIQILEGELFDFDL [T12I]
Second: FIPAKTGKDVAAQILEGELFDFDL [T12A]
The protein stability index of the first is lower: 1.85 for the first, 2.18 for the second.

Compared with FIPAKTGKDVANQILEGELFDFDL [T12N], FIPAKTGKDVAVQILEGELFDFDL [T12V] is higher in protein stability index: 1.89 for the first, 2.98 for the second.

Compared with FIPAKTGKDVAMQILEGELFDFDL [T12M], FIPAKTGKDVADQILEGELFDFDL [T12D] is lower in protein stability index: 2.18 for the first, 1.56 for the second.

Going from FIPAKTGKHVATQILEGELFDFDL [D9H] to FIPAKTGKAVATQILEGELFDFDL [D9A], the protein stability index falls from 2.03 to 1.25.

Compared with FIPAKTGKQVATQILEGELFDFDL [D9Q], FIPAKTGKIVATQILEGELFDFDL [D9I] is lower in protein stability index: 1.68 for the first, 1.42 for the second.

First: FIPAKTGKGVATQILEGELFDFDL [D9G]
Second: FIPAKTGKPVATQILEGELFDFDL [D9P]
The protein stability index of the first is higher: 2.23 for the first, 1.78 for the second.

First: FIPAKTGKWVATQILEGELFDFDL [D9W]
Second: FIPAKTGKCVATQILEGELFDFDL [D9C]
The protein stability index of the first is higher: 3.31 for the first, 2.43 for the second.

First: FIPAKTGKEVATQILEGELFDFDL [D9E]
Second: FIPAKTGKVVATQILEGELFDFDL [D9V]
The protein stability index of the first is lower: 1.81 for the first, 2.29 for the second.

FIPAKTGKYVATQILEGELFDFDL [D9Y] and FIPAKTGKRVATQILEGELFDFDL [D9R] are the same in protein stability index: 2.06 for the first, 2.06 for the second.
